Earlier results as cited in paper PMC11283454 (Nature Communications, 2024).

B1: scATE1: Saccharomyces cerevisiae ATE1 (protein, UniProt P16639 1-503, looked up)
Arginyl-tRNA--protein …: MSDRFVIWAPSMHNEPAAKCGYCHGNKGGNMDQLFALDSWAHRYMNKMDVVKIENCTIGSFVEHMDVATYDRMCNMGFRRSGKFLYKVDPLRNCCRLYTIRTAPQELNMTKELKKCISRFATRITSEDYCPAAVASSDFVGKIVNAEMNSKTFYTRFEPALYSEEKYHLFVKYQEKVHQDYNNSPKSFKRFLCDTPFGPEAVLGTQESWEQLNNWQRMKPGEKLKHMGPVHECYYYEGKLIAITVSDILPSGISSVYFIWDPDYSKWSLGKLSALRDLAIIQRTNLQYYYLGYYIEDCPKMNYKANYGAEVLDVCHSKYIPLKPIQDMISRGKLFVIGEEETKVTKELYLVDSETGRGEGFPTDNVVKYKNIAEEIYGVGGCAFKSANESALELKELYGIPYEEEDLDTIYHLKEHNGHAPNGIPNVVPGLLPLWELLDIMQSGKITDLEGRLFLFEIETEGIRPLINFYSEPPNVKKRICDVIRLFGFETCMKAVILYSEQM
In the case of B1, the “Tm of scATE1” value is given as ~ 46 °C.
